T1: human IL-2 receptor IL-2Rα/IL-2Rβ/γc on HEK-Blue IL-2 cells (UniProt P01589 22-272; P14784 27-551; P31785 23-369)
T1 chain 1: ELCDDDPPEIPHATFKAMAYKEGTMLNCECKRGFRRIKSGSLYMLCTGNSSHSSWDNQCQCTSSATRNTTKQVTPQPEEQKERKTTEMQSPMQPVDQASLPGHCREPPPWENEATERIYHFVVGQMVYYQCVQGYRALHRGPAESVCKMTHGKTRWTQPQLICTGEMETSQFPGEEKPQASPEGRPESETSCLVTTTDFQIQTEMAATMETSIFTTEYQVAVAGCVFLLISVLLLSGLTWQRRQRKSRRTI
T1 chain 2: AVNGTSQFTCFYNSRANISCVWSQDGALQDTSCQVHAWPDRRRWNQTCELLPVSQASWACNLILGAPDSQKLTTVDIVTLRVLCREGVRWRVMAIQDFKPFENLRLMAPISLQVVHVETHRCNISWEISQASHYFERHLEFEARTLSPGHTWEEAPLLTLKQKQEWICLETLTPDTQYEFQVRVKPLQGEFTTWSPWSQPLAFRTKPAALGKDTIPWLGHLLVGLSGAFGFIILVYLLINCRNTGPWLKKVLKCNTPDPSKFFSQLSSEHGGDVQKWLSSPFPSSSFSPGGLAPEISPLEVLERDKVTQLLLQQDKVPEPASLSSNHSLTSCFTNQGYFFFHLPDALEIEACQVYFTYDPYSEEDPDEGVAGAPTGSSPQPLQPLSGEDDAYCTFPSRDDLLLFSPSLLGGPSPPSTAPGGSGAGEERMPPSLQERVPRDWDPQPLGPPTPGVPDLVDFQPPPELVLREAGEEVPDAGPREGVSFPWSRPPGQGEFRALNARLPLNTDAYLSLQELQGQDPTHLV
T1 chain 3: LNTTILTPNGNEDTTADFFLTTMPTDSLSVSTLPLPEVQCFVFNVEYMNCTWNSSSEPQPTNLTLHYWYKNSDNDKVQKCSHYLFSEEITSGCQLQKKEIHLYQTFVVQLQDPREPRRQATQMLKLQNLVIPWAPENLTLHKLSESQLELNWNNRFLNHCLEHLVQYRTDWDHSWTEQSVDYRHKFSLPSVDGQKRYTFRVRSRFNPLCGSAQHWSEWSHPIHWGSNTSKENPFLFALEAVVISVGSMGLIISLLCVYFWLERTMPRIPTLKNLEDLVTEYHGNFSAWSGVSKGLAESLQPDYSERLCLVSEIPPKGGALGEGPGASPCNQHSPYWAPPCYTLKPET


Target: T1, human IL-2 receptor IL-2Rα/IL-2Rβ/γc on …
Assay: FACS cell binding; avid

Binder	EC50 [nM]
BsVHH-15 (36x19) (antibody) QVQLVESGGGLVQAGGSLRLSCAASGRTLSRYAMGWFRQAPGSEREFVAASSWGGDTFYADSVEGRFTFSRDNAKNAVYLQMNSLQPEDTAAYYCAAAPTSFPTTAYSSSNSYAYWGQGTQVTVSSGGGGSGGGGSGGGGSGSEVQLVESGGGLVQTGGSLRLSCAASGGTFSRDAMAWFRQVPGKEREFVALISWSGATTNYADSVKGRFAISRDNGKNTVYLQMNRLKPADTAIYYCAADRRPMGSRSYFEPTEYDDWGQGTQVTVSSGGGGSGGGGSGGGGSTVSSDKTHTCPPCPAPEAAGGPSVFLFPPKPKDTLMISRTPEVTCVVVDVSHEDPEVKFNWYVDGVEVHNAKTKPREEQYNSTYRVVSVLTVLHQDWLNGKEYKCKVSNKALGAPIEKTISKAKGQPREPQVYTLPPSRDELTKNQVSLTCLVKGFYPSDIAVEWESNGQPENNYKTTPPVLDSDGSFLLYSKLTVDKSRWQQGNVFSCSVMHEALHNHYTQKSLSLSPGK	88.3
BsVHH-7 (31x18) (antibody) QVQLVESGGGLVQAGGSLRLSCTGYGGAFTGYALGWFRQAPGKEREFVARINWSGSFTYYASSVKGRFTISRDNAKNTMYLQMNNLKPEDTAVYYCAADNPSTLATDYDNWGQGTQVTVSSGGGGSGGGGSGGGGSGSQVQLVESGGGLVQPGGSLRLSCAISGGTLDSYGIGWVRQAPGKQREGVSCMSRSDDRTYYADSVKGRFTISKDSAKNTVYLQMTSLKPEDTAVYYCAAVDAYGCSLVQPTTYDFWGLGTQVTVSSGGGGSGGGGSGGGGSTVSSDKTHTCPPCPAPEAAGGPSVFLFPPKPKDTLMISRTPEVTCVVVDVSHEDPEVKFNWYVDGVEVHNAKTKPREEQYNSTYRVVSVLTVLHQDWLNGKEYKCKVSNKALGAPIEKTISKAKGQPREPQVYTLPPSRDELTKNQVSLTCLVKGFYPSDIAVEWESNGQPENNYKTTPPVLDSDGSFLLYSKLTVDKSRWQQGNVFSCSVMHEALHNHYTQKSLSLSPGK	23.5

These reach a lower EC50. Values come first.

EC50 [nM]	Binder
3.4	BsVHH-20 (36x22) (antibody) QVQLVESGGGLVQAGGSLRLSCAASGRTLSRYAMGWFRQAPGSEREFVAASSWGGDTFYADSVEGRFTFSRDNAKNAVYLQMNSLQPEDTAAYYCAAAPTSFPTTAYSSSNSYAYWGQGTQVTVSSGGGGSGGGGSGGGGSGSEVQLVESGGGLVQAGGSLRLSCAASGSIFSINAMAWFRQVPGMERELVAAISRDGGASVYRDSVKGRFTISRDNSKNTVYLQMNTLKPEDTAIYVCAATRAIGWTARWITTDFDFWGQGTQVTVSSGGGGSGGGGSGGGGSTVSSDKTHTCPPCPAPEAAGGPSVFLFPPKPKDTLMISRTPEVTCVVVDVSHEDPEVKFNWYVDGVEVHNAKTKPREEQYNSTYRVVSVLTVLHQDWLNGKEYKCKVSNKALGAPIEKTISKAKGQPREPQVYTLPPSRDELTKNQVSLTCLVKGFYPSDIAVEWESNGQPENNYKTTPPVLDSDGSFLLYSKLTVDKSRWQQGNVFSCSVMHEALHNHYTQKSLSLSPGK
1.9	BsVHH-8 (32x18) (antibody) QVQLVESGGGLVQAGGSLRLSCAASGRTFGSTAVGWFRQVPGKEREFVSAINRSGSATTYADSVKGRFTISRDNAKNTVYLQMNSLTPEDTGVYYCAADSLPYGRPYYFQRSAGEYDYWGQGTQVTVSSGGGGSGGGGSGGGGSGSQVQLVESGGGLVQPGGSLRLSCAISGGTLDSYGIGWVRQAPGKQREGVSCMSRSDDRTYYADSVKGRFTISKDSAKNTVYLQMTSLKPEDTAVYYCAAVDAYGCSLVQPTTYDFWGLGTQVTVSSGGGGSGGGGSGGGGSTVSSDKTHTCPPCPAPEAAGGPSVFLFPPKPKDTLMISRTPEVTCVVVDVSHEDPEVKFNWYVDGVEVHNAKTKPREEQYNSTYRVVSVLTVLHQDWLNGKEYKCKVSNKALGAPIEKTISKAKGQPREPQVYTLPPSRDELTKNQVSLTCLVKGFYPSDIAVEWESNGQPENNYKTTPPVLDSDGSFLLYSKLTVDKSRWQQGNVFSCSVMHEALHNHYTQKSLSLSPGK
